Key:
HLA-A*01:01 [1] = assay: IEDB peptide-MHC binding, purified MHC/direct/fluorescence; filed as Kd, often an IC50 or EC50 that approximates it; ≥ and ≤ were set here for values at or beyond the usual limits of such assays
HLA-A*02:01 [2] = assay: as above
HLA-A*02:11 = assay: as above; conditions: source organism: Bacillus cereus 03BB108
HLA-A*02:12 = assay: as above; conditions: source organism: Bacillus cereus 03BB108
HLA-A*02:19 = assay: as above; conditions: source organism: Bacillus cereus 03BB108
HLA-A*03:01 [3] = assay: as above
HLA-A*26:03 [4] = assay: as above; conditions: source organism: Bacillus cereus 03BB108
HLA-A*69:01 = assay: as above
HLA-B*07:02 = assay: as above
HLA-B*08:01 = assay: as above
HLA-B*08:02 = assay: as above; conditions: source organism: Bacillus cereus 03BB108
HLA-B*08:03 = assay: as above
HLA-B*15:01 [5] = assay: as above; conditions: source organism: Bacillus anthracis
HLA-B*15:02 = assay: as above; conditions: source organism: Bacillus cereus 03BB108
HLA-B*15:17 [6] = assay: as above; conditions: source organism: Bacillus anthracis
HLA-B*27:05 = assay: as above
HLA-B*35:01 [7] = assay: as above; conditions: source organism: Bacillus cereus 03BB108
HLA-B*46:01 = assay: as above
HLA-B*48:01 = assay: as above
HLA-B*57:01 = assay: as above
HLA-B*58:01 = assay: as above
HLA-A*11:01 [8] = assay: IEDB peptide-MHC binding, purified MHC/competitive/fluorescence; filed as Kd, often an IC50 or EC50 that approximates it; ≥ and ≤ were set here for values at or beyond the usual limits of such assays; conditions: source organism: Bacillus anthracis str. A0488
HLA-A*26:02 = assay: as above
HLA-A*68:02 [9] = assay: as above; conditions: source organism: Bacillus anthracis str. A0488
HLA-B*15:09 = assay: as above; conditions: source organism: Bacillus anthracis str. A0488
HLA-B*39:01 = assay: as above; conditions: source organism: Bacillus anthracis str. A0488
HLA-A*29:02 = assay: as above; conditions: source organism: Crocodilepox virus
HLA-A*32:07 = assay: as above; conditions: source organism: Crocodilepox virus
HLA-B*15:42 = assay: as above; conditions: source organism: Crocodilepox virus
HLA-B*45:06 = assay: as above; conditions: source organism: Crocodilepox virus
HLA-B*83:01 = assay: as above; conditions: source organism: Crocodilepox virus
HLA-A*01:01 [10] = assay: IEDB peptide-MHC binding, purified MHC/competitive/fluorescence; ≥ and ≤ were set here for values at or beyond the usual limits of such assays; conditions: source organism: Vaccinia virus WR
HLA-A*02:01 [11] = assay: as above; conditions: source organism: Vaccinia virus WR
HLA-A*03:01 [12] = assay: as above; conditions: source organism: Vaccinia virus WR
HLA-A*11:01 [13] = assay: as above; conditions: source organism: Vaccinia virus WR
HLA-A*24:02 = assay: as above; conditions: source organism: Vaccinia virus WR
HLA-B*15:01 [14] = assay: as above; conditions: source organism: Vaccinia virus WR
HLA-A*11:01 [15] = assay: IEDB peptide-MHC binding, purified MHC/direct/fluorescence; filed as Kd, often an IC50 or EC50 that approximates it; ≥ and ≤ were set here for values at or beyond the usual limits of such assays; conditions: source organism: Camelpox virus M-96
HLA-A*31:01 = assay: as above; conditions: source organism: Camelpox virus M-96
HLA-A*68:02 [16] = assay: as above; conditions: source organism: Camelpox virus M-96
HLA-A*80:01 = assay: as above; conditions: source organism: Camelpox virus M-96
HLA-B*40:01 = assay: as above; conditions: source organism: Camelpox virus M-96
HLA-A*26:01 = assay: IEDB peptide-MHC binding, purified MHC/competitive/fluorescence; filed as Kd, often an IC50 or EC50 that approximates it; ≥ and ≤ were set here for values at or beyond the usual limits of such assays; conditions: source organism: Vaccinia virus WR
HLA-A*26:03 [17] = assay: as above; conditions: source organism: Vaccinia virus WR
HLA-B*15:01 [18] = assay: as above; conditions: source organism: Vaccinia virus WR
HLA-B*15:17 [19] = assay: as above; conditions: source organism: Vaccinia virus WR
HLA-B*35:01 [20] = assay: as above; conditions: source organism: Vaccinia virus WR
[21] = source organism: Bacillus anthracis
[22] = source organism: Bacillus cereus 03BB108
[23] = source organism: Camelpox virus M-96

KVQEWYLSY gave a Kd (HLA-A*01:01 [1]; [21]) of no less than 5 µM, a Kd (HLA-A*02:01 [2]; [21]) of 14.3 µM and a Kd (HLA-A*02:11) of 0.308 µM. For the same sequence, the Kd (HLA-A*02:12) was 1.63 µM, the Kd (HLA-A*02:19) was no less than 20 µM and the Kd (HLA-A*03:01 [3]; [21]) was 0.132 µM. It also gave a Kd (HLA-A*26:03 [4]) of no less than 20 µM, a Kd (HLA-A*69:01; [21]) of 15 µM and a Kd (HLA-B*07:02; [21]) of 5.54 µM. For the same sequence, the Kd (HLA-B*08:01; [22]) was no less than 20 µM, the Kd (HLA-B*08:02) was no less than 20 µM and the Kd (HLA-B*08:03; [22]) was 0.324 µM. It also gave a Kd (HLA-B*15:01 [5]) of 0.443 µM, a Kd (HLA-B*15:02) of 1.48 µM and a Kd (HLA-B*15:17 [6]) of 0.121 µM. For the same sequence, the Kd (HLA-B*27:05; [21]) was 0.0517 µM, the Kd (HLA-B*35:01 [7]) was 2.06 µM and the Kd (HLA-B*46:01; [21]) was no less than 20 µM. The Kd (HLA-B*48:01; [21]) was no less than 20 µM, the Kd (HLA-B*57:01; [21]) was no less than 20 µM and the Kd (HLA-B*58:01; [21]) was 3.62 µM. It also gave a Kd (HLA-A*11:01 [8]) of 0.0422 µM, a Kd (HLA-A*26:02; source organism: Bacillus anthracis str. A0488) of 1.21 µM and a Kd (HLA-A*68:02 [9]) of 3.4 µM. It also gave a Kd (HLA-B*15:09) of no less than 20 µM and a Kd (HLA-B*39:01) of 0.0869 µM.
For RVRSMANVY, the Kd (HLA-A*29:02) was 0.0151 µM, the Kd (HLA-A*32:07) was 0.0157 µM and the Kd (HLA-B*15:42) was no less than 5 µM. For the same sequence, the Kd (HLA-B*45:06) was no less than 5 µM and the Kd (HLA-B*83:01) was no less than 5 µM.
SLFTEQAFY showed an IC50 (HLA-A*01:01 [10]) of 32 µM, an IC50 (HLA-A*02:01 [11]) of 15 µM and an IC50 (HLA-A*03:01 [12]) of 7.04 µM. For the same sequence, the IC50 (HLA-A*11:01 [13]) was 7.85 µM, the IC50 (HLA-A*24:02) was 31.2 µM and the IC50 (HLA-B*15:01 [14]) was 3.93 µM. For the same sequence, the Kd (HLA-A*01:01 [1]; [23]) was no less than 20 µM, the Kd (HLA-A*02:01 [2]; [23]) was no less than 20 µM and the Kd (HLA-A*03:01 [3]; [23]) was 4.41 µM. For the same sequence, the Kd (HLA-A*11:01 [15]) was 1.11 µM, the Kd (HLA-A*31:01) was no less than 20 µM and the Kd (HLA-A*68:02 [16]) was no less than 20 µM. It also gave a Kd (HLA-A*69:01; [23]) of no less than 20 µM, a Kd (HLA-A*80:01) of 0.0086 µM and a Kd (HLA-B*07:02; [23]) of no less than 20 µM. It also gave a Kd (HLA-B*08:01; source organism: Variola virus) of no less than 20 µM, a Kd (HLA-B*08:03; source organism: Variola virus) of no less than 20 µM and a Kd (HLA-B*27:05; [23]) of no less than 20 µM. The Kd (HLA-B*40:01) was no less than 20 µM, the Kd (HLA-B*46:01; [23]) was no less than 20 µM and the Kd (HLA-B*48:01; [23]) was no less than 20 µM. For the same sequence, the Kd (HLA-B*57:01; [23]) was no less than 20 µM, the Kd (HLA-B*58:01; source organism: Variola virus) was no less than 20 µM and the Kd (HLA-A*26:01) was no less than 5 µM. It also gave a Kd (HLA-A*26:02; source organism: Vaccinia virus WR) of no less than 20 µM, a Kd (HLA-A*26:03 [17]) of no less than 20 µM and a Kd (HLA-B*15:01 [18]) of 0.959 µM. It also gave a Kd (HLA-B*15:17 [19]) of no less than 20 µM and a Kd (HLA-B*35:01 [20]) of 1.15 µM.
